Source: patent US20090111745A1
Like-named read-outs stand apart in the source and are kept apart here. One block for each substance: values may come before it.

Key:
[1] = target: human serum albumin (human) (UniProt P02768); experiment: sandwich ELISA, HSA coated at 10 µg/ml, control at 1 µM, detection with anti-FITC antibody
[2] = target: interleukin-1 type 1 receptor (human) (UniProt P14778); experiment: cell-based or functional assay
[3] = target: human serum albumin (human) (UniProt P02768)

Sequence of recombinant human IL-1ra (R&D systems) (P18510 other isoform, or with tags, fused parts or gaps): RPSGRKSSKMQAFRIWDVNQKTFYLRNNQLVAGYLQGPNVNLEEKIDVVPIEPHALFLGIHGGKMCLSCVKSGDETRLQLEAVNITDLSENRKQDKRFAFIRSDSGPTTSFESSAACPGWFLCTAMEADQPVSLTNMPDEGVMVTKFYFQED
Sequence of uncoupled saporin (enzyme) (P20656 25-277): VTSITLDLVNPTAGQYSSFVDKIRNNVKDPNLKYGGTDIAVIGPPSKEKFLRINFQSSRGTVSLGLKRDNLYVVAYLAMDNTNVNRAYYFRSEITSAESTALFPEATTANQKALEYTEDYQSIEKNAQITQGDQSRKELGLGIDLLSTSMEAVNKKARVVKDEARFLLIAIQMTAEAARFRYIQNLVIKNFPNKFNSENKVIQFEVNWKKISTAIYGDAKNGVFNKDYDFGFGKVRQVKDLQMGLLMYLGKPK
Sequence of interleukin-1 type 1 receptor (human) (P14778 18-569): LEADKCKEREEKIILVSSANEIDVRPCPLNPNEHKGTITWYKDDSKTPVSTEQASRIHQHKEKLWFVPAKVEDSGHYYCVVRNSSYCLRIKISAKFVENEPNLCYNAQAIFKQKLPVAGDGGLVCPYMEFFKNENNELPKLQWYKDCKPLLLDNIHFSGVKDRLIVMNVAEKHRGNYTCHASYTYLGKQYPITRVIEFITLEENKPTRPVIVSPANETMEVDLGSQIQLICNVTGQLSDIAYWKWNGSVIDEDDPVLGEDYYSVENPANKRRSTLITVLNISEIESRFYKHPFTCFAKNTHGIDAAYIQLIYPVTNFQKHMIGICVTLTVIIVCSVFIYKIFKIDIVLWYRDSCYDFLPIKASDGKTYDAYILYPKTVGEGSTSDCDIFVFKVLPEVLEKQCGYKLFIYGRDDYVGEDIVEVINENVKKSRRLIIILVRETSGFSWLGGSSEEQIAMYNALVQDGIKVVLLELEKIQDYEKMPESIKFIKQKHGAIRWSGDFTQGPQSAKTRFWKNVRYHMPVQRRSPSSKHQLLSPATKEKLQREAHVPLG

OD600 [1]: 0.049 OD600
Substance: control FITC coupled antibody

ND50 (neutralizing dose 50), IL-1-induced IL-8 secretion by MRC-5 cells [2]: 0.5 nM
Substance: recombinant human IL-1ra (R&D systems) (from UniProt P18510 26-176) (ligand)

Substance: uncoupled saporin (enzyme)
OD600 [3]: 0.079 OD600
